Positions count from the first letter of the chain named. Like-named read-outs stand apart in the source and are kept apart here.
What was measured:
[1] = target: T1, Motavizumab fragment of antigen binding (Fab); assay: SPR (Biacore), motavizumab Fab immobilised, immunogen injected
T1 construct: also called motavizumab Fab

[2] = target: T1, Motavizumab fragment of antigen binding …; assay: as above; remark: listed apart in the source
[3] = target: motavizumab (as used in ITC); assay: ITC
[4] = target: RSV F glycoprotein on GFP-expressing RSV (respiratory syncytial virus, UniProt P03420 26-574); assay: cell-based or functional assay
1lp1b-003 F2Y H15N = assay: co-crystallization
1lp1b-003_K272E = target: T2, 1lp1b-003_K272E; assay: SPR (Example 7)
T2 construct: also called 1lp1b(K272E)

B1: 1s2xa_002 (designed binder)
chain: GSPNSRVDELGFNEAERQKILDSNSSLMRNANEVRDKFIQNYATSLKDSNDPQDFLRRVQELRINMQKNFISFDAYYNYLNNLVLASANRASQELSFINDTIKNNDTKKLFSNEAADNFNNFTADEVARISDLVASYLPREYLPPFIDGNMMGVAFQILGIDDFGKKLNEIVQDIGTKY
Kd [1]: 3.64 µM | Kd [2]: 3.64 µM

B2: 1s2xa_001 (designed binder)
chain: B1 chain with A91C, I98A, A115I
Kd [1]: 4.75 µM | Kd [2]: 4.75 µM

B3: 1s2xa_003 (designed binder)
chain: GSPNSRVDELGFNEAERQKILDSNSSLMRNANEVRDKFIQNYATSLKDSNDPQDFLRRVQELRINMQKNFISFDAYYNYLNNLVLASANRASQELSFANDTIKNNDTKKLFSNEIADNFNNFTADEVARISDLVASYLPREYLPPFIDGNMMGVAFQILGIDDFGKKLNEIVQDIGTK
notes: also called Cag-Z
Kd [1]: 3 µM | Kd [2]: 3 µM | -TdS [3]: 9.9 | Kd [3]: 0.147 µM | dH [3]: -19.2

B4: 1s2xa_004 (designed binder)
chain: B3 chain with A98I, I115A
Kd [2]: 3.95 µM | -TdS [3]: 10.7 | Kd [3]: 0.275 µM | dH [3]: -19.6

B5: motavizumab IgG (antibody, V domains shown)
VH: QVTLRESGPALVKPTQTLTLTCTFSGFSLSTAGMSVGWIRQPPGKALEWLADIWWDDKKHYNPSLKDRLTISKDTSKNQVVLKVTNMDPADTATYYCARDMIFNFYFDVWGQGTTVTVSS
VL: DIQMTQSPSTLSASVGDRVTITCSASSRVGYMHWYQQKPGKAPKLLIYDTSKLASGVPSRFSGSGSGTEFTLTISSLQPDDFATYYCFQGSGYPFTFGGGTKVEIK
EC50 (read off the curve), neutralization of GFP-expressing RSV on HEp-2 cells, flow cytometry [4]: ~60 pM

B6: motavizumab (format in the assay not stated) (antibody, V domains shown)
VH: B5 VH
VL: B5 VL
binding result (1lp1b-003 F2Y H15N): binds

B7: motavizumab Fab (Fab, V domains shown)
VH: B5 VH
VL: B5 VL
notes: also called the Fab
binding result (1lp1b-003_K272E): no binding

B8: 2eiaa_001 (designed binder)
chain: APRGYTTWVNTIQTNGLLNEASQNLFGILSVDATSEEMNAFLDVVPGQAGQKQILLDAIDKIADDWDNRHPLPNAPLVAPPQGPIPMTARFIRGLGVPRERQMEPAFDQFRQTYRQWIIEAMSEGIKVMIGKPKAQNIRQGAKEPYPEFVSRLLSQINDEGHPNDIKKLRSNTLTIQNANEECRNAMRHLRPSDTGAEKMYACRDIG
binding result [2]: no binding

Source: US20120315270A1 (UNITED STATES OF AMERICA AS REPRESENTED BY THE, published 2012)
